# Measured values as given in the nanobody polyreactivity screen of Harvey et al. (2022).
# Experiment: yeast display, Sf9 membrane polyspecificity reagent, FACS + sequencing; frameworks hold sequencing errors
# How it was run: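 A synthetic nanobody library was expressed on Saccharomyces cerevisiae BJ5465 by galactose induction for 36–48 hours. The library was stained for 1 hour at 4 °C with 10% biotinylated, detergent-solubilized Sf9 membrane reagent and enriched with streptavidin microbeads before FACS. Low and high (top ~1%) gates were set on anti-HA fluorescence for expression and streptavidin fluorescence for reagent binding, and each polyreactivity label reflects the gate of origin.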
row,Sequence,polyreactivity (PSR sort gate)
1,QVQLVESGGGLVQAGGSLRLSCAASGFIFGYNAMGWYRQAPGKERELVAAIRAGDGSTYYADSVKGRFTISRDNAKNTVYLQMNSLKPEDTAVYYCAAAWRQSGYRYGYWGQGTQVTVSS,high polyreactivity
2,QVQLVESGGGLVQAGGSLRLSCAASGRIFGYNAMGWYRQAPGKERELVDAITTSGGSTYYADSVKGRFTISRDNAKNTVYLQMNSLKPEDTAVYYCARDSLQVFYPYASDDYWGQGTQVTVSS,low polyreactivity
3,QVQLVESGGGLVQAGGSLRLSWAASGLIFYWYAMGWYRQAPGKERELVAAINRGGSTYYADSVKGRFTISRDNAKNTVYLQMNSLKPEDTAVYYCAAGGYRGRKRFGWDYTYNYWGQGTQVTVSS,low polyreactivity
4,QVQLVESGGGLFQAGGSLRLSCASSGSIFLIYAMGWYRQAPGKERELVAAITQRGGSTYYADSVKGRFTISRDNAKISVYLQMESLKPEDTAVYYCNARRYVMRYNRFYYWGQGTQVTVSS,high polyreactivity
5,QVQLVESGGGLVQAGGSLRLSCAASGSIFSVNTMGWYRQAPGKQRELVAAISESGDGTYYADSVKGRFTISRDNAKNTVYLQMNSLKPEDTAVYYCNADRQKGGGYYPHEFDYWGQGTQVTVSS,low polyreactivity
6,QVQLVESGGGLVQAGGSLRVSCAASGGIFGLYTMGWYRQAPGTERELVAGISKRGTRTRYADSVKGRFTISRDNAKNTVYLQMNSLKPDDTAVYYCNADYYVSKLDDWGQGTQVTVSS,high polyreactivity
7,QVQLVESGGGLVQAGGSLRLICAASGFIFTLYAMGWYRQAPGTERELVAAISKTGGRTYYADSVKGRFTISRDNAKNTVYLQMNSLKPEDTAVYYCAKDVPSTYAAAYDYWGQGTQVTVSS,high polyreactivity
8,QVQLVESAGGLVQAGGSLRLSCAASGITFSYYTMGWYRQAPGKEREFVATIRRGGSTNYADSVKGRFTISRDNAKNTVYLQMNSLKPEDTAVYYCAADLRRNGWGFDYWGQGTQVTVSS,high polyreactivity
9,QVQLVESGGGLVQAGGSLRLSCAASGFIFGYYAMGWYRPAPGNERELVAAIDWSDGSTYYADSVKGRFTISRDNAKNTVYLQMNSLKPEDTAVYYSAVDTYSQQAGDYEYWGQGTQVTVSS,low polyreactivity
10,QVQLVESGGGLVQAGGSLRLSCAASGSIFTPNAMGWYRQAPGKERALVAAISSSSDRTYYADSVKGRFTISRDNAKNTVYLQMNSLKPEDTAVYYCAAYAQKRYYWGQGTQVTVSS,high polyreactivity
11,QVQLVESGGGLVQAGGSLRLICAASGRTFGVYSMGWYRQAPGKERELVAAISATGGSTYYADSVKGRFTISRDNAKNTVYLQMNSLKPEDTAVYYCARGGTTLYWGQGTQVTVSS,high polyreactivity
12,QVQLVESGGGLVQAGGSLRLSCAASGFIIPGYAMGWYRQAPGKERELVAAISRSGTSTYYADSVKGRFTISRDNAKNTVYLQMNSLKPEDTAVYYCAAKPASLSVRGYDYWGQGTQVTVSS,high polyreactivity
13,QVQLVESGGGLVQAGGSLRLSCAAYGIIFYLYVMGWYRQAPGKERELVAVISYSGDDTYYADSVKGRFTISRDNAKNTVYLQMNSLKPEDTAVYYCAADYYYVYSSFGHYYWGQGTQVTVSS,low polyreactivity
14,QVQLVESGGGLVQAGGSLRLSCAASGSIFSRNTMGWYRQAPGKERELVAGISSSGSRTYYADSVKGRFTISRDNPKNTVYLQMNSLKPEDTAVYYCAAEHQRSRGRRYYIGYDYWGQGTQVTVSS,low polyreactivity
15,QVQLVESGGRLGQAVGSLRLSCAASGSIFLQNAMGWYRQAPGKERELVAAITNGGSTNYADSVKGRCTISRDNAKNTVYLQINSLKPEDTAVYYCAAYPLYTGSYDRGGYWGLGTQVTVSS,low polyreactivity
16,QVQLVESGGGLVQAGGSLRLSCAASGFTFSRNTMGWYSQAPGKERELVARISASGGSTYYADSVKGRITISRDNAKNTVYLQMNSLKPEATAVYYCAAVYRRYGGSRYDYWGQGTQVTVSS,high polyreactivity

row,Sequence,polyreactivity (PSR sort gate)
1,QVQLVESGGGLVQAGGRLRLSCAASGHIFWGYAMGWSRQAPGKERELVAAITSGGNTNYADSVKGRFTISRDNAKNTVYLQMNSLKPEDTAVYYCAKRTRPWRDFDYWGQGTQVTVSS,low polyreactivity
2,QLQLVESGGGLVQAGGRLRLSCAASGLTFQYNAMGWYRQAPGKERELVASINSGGSTDYADSVKGRFTISRDNAKNTVYLQMNRLKQEDTAVYYCASSGYWYSASYGYEYWGQGTQVTVSS,low polyreactivity
3,QVQLVESGGGLVQAGGSLRLSCAASGRTFVVYAMGWYRQAPGKERELVAGSGSTFYADSVKGRFTISPDNAKNTVYLQMNSLKPEDTAVYYCAADHPALYSLDWDTAYDYWGQGTQVTVSS,low polyreactivity
4,QVQLVESGGGLVQAGGSLRLSCDASGRTFPINAMGWYRQAPGKERELVAAISSGDGITYYADSVKGRFTISRDNAKNTVYLQMNSLKPEDTAVYYCAKELSQGLRYDYWGQGTQVTVSS,high polyreactivity
5,QVQLVESGGGLVQAGGSLRLIFAASGFTFGGYAMGWYRQGPGKERELVAGISYRGGSTYYADSVKGRFTISRDNAKNTVYLQMNSLKPEDTAVYYCAADRGYPGKVDYWGQGTQVTVSS,low polyreactivity
6,QVQLVESGGGLVQAGGSLRLTCAASGSTDPYAMGWYRQAPGKERELVARIRYSGGSTYYADSVKGRCTISRDNAKNTVYFQMTSLKPEDTAVYYCAAQSYTYYHHYGYWGQGTQVTVSS,high polyreactivity
7,QVQLVESGGGLVQPGGSLRLSCAASGSILKSYAMGWYRQAPGKERELVAAITYRDGSTYYAHSVKGRFTISRDNSKNTVYLQMNSLKPVDTAVYYCAAEPSWWNVFYPGYNYWGQGTQVTVSS,high polyreactivity
8,QVQLVESGGGLVQTGGSLRLSCAASGFNFYINAMGWYRQAPVKERELVAAINWRTGSTYYADSVKGRFTISRDNAKNTVYLQMNSLKQEDTAVYYCAAYGYWRRADTEFDYWGQGTQVTVSS,low polyreactivity
9,QVQLVESGGGLVQAGGSLRLSCAASGSIFNPYAMGWYRQAPGKQRELVAAISYTGGRTYYADSVKGRFTISRDNAQNTVYLQMNSLKPEDTAVYYCIADYIYSFYWSFYEYDYWGQGTQVTVSS,high polyreactivity
10,QVQLVESGGRLVQAGGSLRLSCAASGYIFYPNVMGWYRQAPGKERELVAAISSSGGSTYYADSVKGRFTISRDNAKNTVYLQMNSLKPEDTAVYYCAARSLRYADYRSSYQKDMYYWGQGTQVTVSS,low polyreactivity
11,QVQLVESGGGLVQAGGSLRLSCAASGSTSQPYAMGWYRQAPGQERELVASITNGGITYYADSVKGRFTISRDNAKNTVYLQMNSLKPEDTAVYYCNTVSYTEFDYWGQGTQVTVSS,low polyreactivity
12,QVQLVESGGGLVQAGGSLRLSCAASGFISHKYAMGWYRHAHGKERELVAAISWSGTSTHYADSVKGRFTISRDNAKKTVYIQMKSLKPEDTAVYYCAARRYPVLKYDYWGEGTQVTVSS,high polyreactivity
13,QVQIEESGGGLVQAGGSLRLSCAASGLIFGSYVMGWYRQAPGKERELVAAITVRTGTTYYADSVKGRFTISRDNAKNTVYLKMNSLKPEDTAVYYCALRYRPKYGYWGQGTQVTVSS,high polyreactivity
14,QVQLVESGGGLVQAGGSLRLSCAASGSIFYLYAMGWYRQAPGKERELVATITRGGSTNYADSVKGRFRISRDNAKNTDYVQMNSLKPEDTARYYCNARFFKPPYSKWSSRFDYWGQGTQVTVSS,high polyreactivity
15,QVQLVESGGGLVQAGGSLRLSCAASGRTLHANTMGMYRQAPGKERELVAAITRGGGNTYYADSVKGRFTISRDNAKNTVYLQMNSLKPEDTAVYYCNADVSGYLWYEYDYWGQGTQVTVSS,low polyreactivity
16,QVQLVESGGGLVQAGGSLRLSCAASGFIFAGYAMGWYRQAPGKERELVAAISGSGGRTYYADSVKGRFTISRDNAKNTVYLQMNSLKPEDTAVYYCNAGKQYRYDWGQGTQVTVSS,high polyreactivity
